From a protein production outcome set (Wang et al. 2014)

Assay: label from the status in PepcDB records

| Sequence | protein production |
| --- | --- |
| MKKYIKPSAILLTLILSACSETKTVQQLISSGNSFVQVRDFSSAVIEFKNAVRLEPKNANARFELGNAYLEQGNFVNAEKEFSRAVELGLDFSNIAALMARVNTHLDKADEVYQLVERSDELTDDDYVEVLTYAGITALKQNRISQGQDYLTQAIVINPDAAYSRIAQAYVHYADREFSQGIVVISNLLNEKTDATEAMLIQGHLYYAQQEFEHASGAFALYLNYHPQDHKIRFFEVNSLIKAEKFEQANVITNTLLKAFKDSSLALQFKAQLEYQKKNYSAARDYAEEALQHGQDFLGAKIIAGVSSYFLGDVEQAYTKLNGIVERVPNNLLVKKILAVTKFELGYYADAAENFSSLEGLTSADLQLLKSSSASLMGIGYVDNALSLINKAEEFSPDNAQVAAQKGLMLLSQNDISGINSMKRAVELDPSLTYVQVALAIGYLNIGEENKAQKIADLYKDKIDEADVGHVLEGFIYLNNKQSANAQVSFEKALSLNPKNIASLYNLGLLHKRAAENSKAIIYFDRLIALSPEHKGALKSLVSIAVNKEYLEEVLTILVRNHQTDNLYSIIALAQVLRIDQQVAKAVTTLGGIDKSVKLTSNYFMLLGDSYLELEKYLKANAIFEQGLALEPKDYLLNIRYISTLEWLGDYTAALDQTRRLHKYYPNNINITTSLIYLEVRNKNYQEAKYLLEAIKGQKSNHHQLDAIAGEIYSYEKDYPQAIEHFSVVYEKEPTELNLLNLARTLGFDKQNKQAERLLELYLDKNPNNSKIRFLLAELYNPQDRKKRVVQYQVLSTQIPNNAIVFNNLAWNQFKLKQTAEALINIEKAYQLQPDSLAIQESYGVILIANNKLSQGINILESAILSGSTDAAAKEYLIKAKTLLNNQGKSSG | failed |
| MDFGKPNQVTVNYLDENKTPIAPSLYLSGLFNEAYNVPMKKIKGYTLLKYDSEILGVFTESPQTINIIYQKKAPEQALEHHHHHH | failed |
| VPYAVEGRNYQGDLYLPCERIRAGLVLLPGAAEEGKDDPRLQAFAETLARARFAVLVPDLGGFRSLRAGSRDIGETADAILWLSSRPGLSPGGKCGVAALSYAGGPALLAALEPRAGQRVRFLVTVGGYYDLRNVLTFFTTGWYRDGDRWRRGTPNNYGKWVFVLANTDRIKNVRDRTALEKLARRKMDNPAARTDDLVRGLGPEGKSLYDFFANTDPRQVPALVERLPTPIRRDLAALDPSRRDLRGLTARLIIIHGRDDDIIPAAESEALARAVPRDRRGLFVLDGLMHVELKPKLTDAFRLWRAVSAILRER | failed |
| MKPTLLVLAAGMGSRYGGVKQIAAVGRHDETLLDYAVYDAMNNGFGKVVFIIREDIENDFRERFFNRIARNCNADYVFQSMDGFLTDEQIKRAVNRKKPWGTAHAILSAELKINEPFAVINADDYYGRSAYKTIATHLSTLSNDSTEHAMVGYILDKTLSRSGSVSRGVCQVGNGYLIGITEHKDIAYKKEGSVEKIVSEHEGKTVEFSGKETVSMNLFGFSPKIFDFMNEYFKDFIHKYAESEKAECLLPEGVGAMMKKGLGKVKVYTTTERWFGMTYPEDREIVKKELENKVKEGYYPEFLWR | failed |
| IKTRGRNLYSYEGKIGKAVDDIKSGQEGYVIVEGEYWRALALEDIKKNEDIVVVKREGMKLMVRKKVSDIETSRV | failed |
| MRLFFEFTLCAALGLLVSGVILIFLLFFGKFGLIEYWIASGKPLAHAMLVLMPDGFWEGLSGIEGAAGNPHVRSFLELCMGLGQSALLLGLLLFRLVCWK | failed |
| MERRTILVTGASGFVGGALCRQLATLGSFAIRAASRDLGGASVAGIQAVTVADLSATTDWARALSGVDLVVHAAARVHVMKETASDSLAEFRRVNVDGTLNLARQAAAAGVRRFIFISSIKVNGESSQPGQPLRADDSPAPQDAYGVSKHEAEQGLRQLAAATGMEVVVIRPVLVYGPGVKANFHSMMRWLQRGVPLPFGAVCNRRSLVSLANLVDLVVTCIDHPRAANQTFLASDGDDVSLTQLLRALGLALGRPARLLPVPAGLLRGAVLLIGRRDLAQRLFGTLQVDIEKNRQLLGWYPPCTLEQGLNMTARSFLGARRP | failed |
| SQEIVAGELERCFLAMPESVLPIVTMEERNDLCRRAGHLSGFTHTASLESSLGGTVTFLLNRNFIRIQTSTVGEVFMRILPFSDSSSVICVVTTVLHPVADSRIDFYTTEWKPLKTDRFWQQPRIEDFFLPHTDRQSYAYQAIYASLTPSYMQVSLSEESDTLSIRQTVTETLAEEEKPLAAIFLSPEPLVYRWQSGRFVRQVR | not failed |
| GDDEIAMLGRYFNQMTRQLKGQRDTLLENTHQIERRRRLFDSVLSSVTSGVVGLDSQGKVTFVNRSAERLLDWSGDEQSLDLAVAVPEFVSLFESLVAAGQETVQAEIKVTRKGQLENLLVRMSTRRGEDDTLEGYVIAFDD | failed |
| MRTLRSLMLAAALAVALAVTGFAASPLPSAYAKYAAGPTKILPLQRAFPLDELVELSELRARDRVRHARILLGGGRQSSVGGVVDFPVQGSSDPYLVGLYFTKVKLGSPPTEFNVQIDTGSDILWVTCSSCSNCPHSSGLGIDLHFFDAPGSLTAGSVTCSDPICSSVFQTTAAQCSENNQCGYSFRYGDGSGTSGYYMTDTFYFDAILGESLVANSSAPIVFGCSTYQSGDLTKSDKAVDGIFGFGKGKLSVVSQLSSRGITPPVFSHCLKGDGSGGGVFVLGEILVPGMVYSPLVPSQPHYNLNLLSIGVNGQMLPLDAAVFEASNTRGTIVDTGTTLTYLVKEAYDLFLNAISNSVSQLVTPIISNGEQCYLVSTSISDMFPSVSLNFAGGASMMLRPQDYLFHYGIYDGASMWCIGFQKAPEEQTILGDLVLKDKVFVYDLARQRIGWASYDCKCNHRVMSYRKL | failed |
| MVKLNSNPSEKGTKPPSVEDGFQTVPLITPLEVNHLQLPAPEKVIVKTRTEYQPEQKNKGKFRVPKIAEFTVTILVSLALAFLACIVFLVVYKAFTYDHSCPEGFVYKHKRCIPASLDAYYSSQDPNSRSRFYTVISHYSVAKQSTARAIGPWLSAAAVIHEPKPPKTQGH | failed |
| MNSIRSSPAIGENRTVYIGSYDGKLYAFNPDGTLKWSYTTGNQITGSATIGADGTICIGSYDRRLYTINPDGTLKWSYTTGNQIFSSAAIGEDGTIYVGSRDNKLYALNPDGTLKWSYTTGNQIFSSAAIGEDLEHHHHHH | failed |
| MDSRLAMFAPCPRGLEQILADELLALGAGDIAPADGGVAFAGDARLMMAVNLHSRTASRVLLRLAHGGYHAEQDIYRLAMSVDWPRWFEVSRTIKLKADGIAARVKSLDYIGLTVKDAICDRFRQAHLGRPSVDTRHPDVRVNVFLTADEATIYLDTSGEPLFKRGWREETGEAPLRENLAAGILLLAGYDGSQPLLDPMCGSGTFLVEAADIALNRAPGRARRFGFEALSSFDSAAWEKLQQDARKAEQPASSLAIRGSDRSQAMVNIARANLERAGLAELVEVSAADVTASRPHAEHGLIVSNPPYGVRLEEQDQLAAWYPELGDWLKAHFAGWTACLFSGDLRLGKLIRLAPKRRTPLFNGSLQCRLFVINMVEGSARKQKDGDEAEIETGDEQ | failed |
| MLVQAIMTSPAITVTASASVAEAARLMLDNRISGLPVVGANGALVGIVSEGDFLRRSELSTERKRSWLLEWLTSSGRIAAEYVRTHGRRVEEVMTAPVSAIAPTASLSDAVRLMERQEIKRLPVVEGGRLVGIVARSDLLRALSQALPATSTSAGDAQIQAAIEAALAKQSWSRNGFIHSRVTDGIAELTGTVFDERERLAAKVAVENVAGVTSVKDQLVWVDPYYGIALPPPDAETSQA | failed |
| MTLDANSAPVRDMASAHFSPGEDCRRKIRDLCRQARISVDICVFTISDDQLSDEIRACHQRGVAVRVISDSEKQFDVGSDIAALREAGVPVRIDDTPFHMHHKFAVFDGRTLLNGSFNWTRSATTGNEENLLVIDHPQLVASYLKEFNELWSRYAPRLEHHHHHH | failed |
| MKQIIDIENWERKENFNFFRHFQNPQLSITSEVECGGARQRAKAAGQSFFLHYLYAVLRAANEIPEFRYRIDPDGRVVLYDTIDMLSPIKIKENGKFFTTRFPYHNDFDTFYQEARLIIDAIPEDGDPYAAENEEVADGDYGLILLSATPDLYFTSITGTQEKRSGNNYPLLNAGKAIIREGRLVMPIAMTIHHGFIDGHHLSLFYKKVEDFLK | not failed |
| STNLQEKGLVVSIVDTLMFDTGRAEVKPDFQKKLVEIGEILKTIDNYIRIEGHTDNTPISNSQYASNIELGSARSNNVEHLFIDVSKIPVTQMYTVSYADTRPVADNNSEAGKARNRRVDIVILNSKFNAVEQESSGK | failed |
| MKKAAAYTFCFLLLSGVGIILFMDIHPAFGGIPTTEQKEAYRELDNYVDGNFVNDVPTRRAFVDPSDTTSTTNTSASEVKDRNPVSPIPVYVIDWNKINSENDSLTWFGHSAFLLNVDNKQLLIDPMLGPVVSPVSFVGRNRYEYSEDIMLHLIDEMPPIDAVLITHDHYDHLDYRSIVKLNNKVSHFFVPLGCSAHLIRWGIPEEKITELNWWEETEYQGLTVALTPSRHSSGRNPFNIDTTLWGGWVILGNKTRVYTSGDSGYGPHFKQIGDKYGPFDITLIEGAQYDRNWPDLHMVPEQAIQANLDVGGKTMMLMHWGAFTLANHAWNEPIERALKEAKIREVNIIAPMIGETVLLDSDLQTSPTSWWDF | failed |
| MMRVLHISDTHFGTEREPVVHALHALADTLRPDLVVLGGDITQRARRGQFAAARRFIQALQRPVLAVPGNHDIPLFNLAARLFDPYGNYRRALGAVLEPVYEDDRLLAIGVNSTRAARRKNGEVSRTQAQRVAQRLRDARPGQLRVVALHHPVHAMVESDQRNLLIGREFAVPAWVDAGVDLILGGHIHLPYVAPLHGKAGEAGRRAWTVQAGTAVSRRVRGRVPNSVNLIDYAAQADSPACTVQRWDFQTDSGAFVLFGQQVLALNRARG | failed |
| EEELPFKVLGDGSYLFEGKTSLSDVRHYLDLPENAFGELGDEVDTLSGLFLEIKQELPHVGDTAVYEPFRFQVTQMDKRRIIEIKIFPFE | not failed |
| MSLAQGRQVIGLDIGTTSTIAILVRLPDTVVAVASRPTTLSSPHPGWAEEDPAQWWDNARAVLAELKTTAGESDWRPGGICVTGMLPAVVLLDDRGAVLRPSIQQSDGRCGDEVAELRAEVDSEAFLARTGNGVTQQLVTAKLRWIERHEPAVFGAIATVCGSYDYINMLLTGERVVDRNWALEGGFIDLASGTVEADLVALAHIPPSAVPPAHPTHRVLGAVTAEAAALTGLPTGLPVYGGAADHIASALAAGITRPGDVLLKFGGAGDIIVASATAKSDPRLYLDYHLVPGLYAPNGCMAATGSALNWLAKLLAPEAGEAAHAQLDALAAEVPAGADGLVCLPYFLGEKTPIHDPFASGTFTGLSLSHTRGHLWRALLEAVALAFRHHVAVLDDIGHAPQRFFASDGGTRSRVWMGIMADVLQRPVQLLANPLGSAVGAAWVAAIGGGDDLGWDDVTALVRTGEKITPDPAKAEVYDRLYRDFSALYATLHPFFHRSREGHHHHHH | not failed |
| MRRLPPWMLGGASTGEAAARNGSQPEAPKTKAEKRPKRVQKTKEKDLNLKSDEPKRVPRKIREEAKRSPEVIQSVTVPEDDDLTVDDLLSFANEVM | failed |
| MIILGQALYQKDQFAEAAKCLEQAASKLLDTSPTEVEEVDLLIVASQWAGVSNIRQGKTSEGITHLERVANMKEPDDPKSKAHYLDALVLYSSAIFNEGRREEAAKYLRRVVAYDPSFSELLKQCEEDDTIPTSSSSNSTSKTS | failed |
| MNLHSRQDEGPIPSGNPYALSLSMSAILAPFKKIYDLIDGFVLIMLTAIGIALIAPEIGTGDGPLRLGVVTNLGVALVFFLHGAALSRDKLVAGAKHWRLHVFVQSFTYIVFPIVGVLLMLSLRNTLPPELLLGVFYLCALPSTVSSSVAMTSMARGNVPGAIFNATISGLIGMALTPLLMGLVISASGASMPLGRALMGVALQLLLPFALGQAARPLIGNWLAKKKQITNKIDRGVIVLIVYSSFCDATAAGLWHQYHWQTIGAVMGIAAVLLFVILGTTTFTARRLGFSVEDEITAVFCGSKKSLANGIPMAKILFAGHPALGLLVLPLMVYHQLQLIVCSVIAARYANRDDVETREAVRA | failed |
